Laboratory results as given in the DeepSol protein solubility set.

test: soluble on expression in E. coli; label from the status in PepcDB or PDB records

Sequence | soluble on expression in E. coli
MEQATQQIAISDAAQAHFRKLLDTQEEGTHIRIFVVNPGTPNAECGVSYCPPNAVEESDIEMKYNTFSAFIDEVSLPFLEEAEIDYVTEELGAQLTLKAPNAKMRKVADDAPLIERVEYVIQTQINPQLANHGGRITLIEITEDGYAVLQFGGGCNGCSMVDVTLKDGVEKQLVSLFPNELKGAKDITEHQRGEHSYYLEHHHHHH | soluble
MGSTSTPDSSTNRLQDKVAIITGGAGGIGETTAKLFVRYGAKVVIADIADDHGQKVCNNIGSPDVISFVHCDVTKDEDVRNLVDTTIAKHGKLDIMFGNVGVLSTTPYSILEAGNEDFKRVMDINVYGAFLVAKHAARVMIPAKKGSIVFTASISSFTAGEGVSHVYTATKHAVLGLTTSLCTELGEYGIRVNCVSPYIVASPLLTDVFGVDSSRVEELAHQAANLKGTLLRAEDVADAVAYLAGDESKYVSGLNLVIDGGYTRTNPAFPTALKHGLA | soluble
MPIKSKANEVPKEEAGVKKETPKVARKATKKDTPKELKDKENAGDDNTPKQTKGRPGRPAAKRKNLDTPDVTEKLAMEEENPPKRRSSRLTRSTRSMAEDGSPSPEKEKPEKLPFIKYKGAIKYFTESQDIAASADDVLQWVEKQKDEVVPMAFDMEWPFSFQTGPGKSAVIQICVDEKCCYIYQLTNVKKLPAALVALINHPKVRLHGVNIKNDFRKLARDFPEVTAEPLIEKCVDLGLWCNEVCETGGRWSLERLTNFIAKKAMDKSKKVRMSKWHVIPLDENQLMYAAIDVYIGQVIYRELERREKVKIKNEEEFKEKNGDAAFKAMKALGETFLTKINEVTLLEHHHHHH | soluble
ADEFGNGDALDLPVGKDAVNSLIRENSHIFSDTQCKVCSAVLISESQKLAHYQSRKHANKVRRYMAINQGEDSVPAKKFKAAPAEISDGEDRSKCCPVCNMTFSSPVVAESHYIGKTHIKNLRLREQ | soluble
SSSLHKSRIADFQDVLKEPSIALEKLRELSFSGIPCEGGLRCLCWKILLNYLPLERASWTSILAKQRELYAQFLREMIIQPGIAKANMGVSREDVTFEDHPLNPNPDSRWNTYFKDNEVLLQIDKDVRRLCPDISFFQRATDYPCLLILDPQNEFETLRKRVEQTTLKSQTVARNRSGVTNMSSPHKNSAPSSLNEYEVLPNGCEAHWEVVERILFIYAKLNPGIAYVQGMNEIVGPLYYTFATDPNSEWKEHAEADTFFCFTNLMAEIRDNFIKSLDDSQCGITYKMEKVYSTLKDKDVELYLKLQEQNIKPQFFAFRWLTLLLSQEFLLPDVIRIWDSLFADDNRFDFLLLVCCAMLMLIREQLLEGDFTVNMRLLQDYPITDVCQILQKAKELQDSK | soluble
MALRNVPFRSEVLGWDPDSLADYFKKLNYKDCEKAVKKYHIDGARFLNLTENDIQKFPKLRVPILSKLSQEINKNEERRSIFTRKPQVPRFPEETESHEEDNGGWSSFEEDDYESPNDDQDGEDDGDYESPNEEEEAPVEDDADYEPPPSNDEEALQNSILPAKPFPNSNSMYIDRPPSGKTPQQPPVPPQRPMAALPPPPAGRNHSPLPPPQTNHEEPSRSRNHKTAKLPAPSIDRSTKPPLDRSLAPFDREPFTLGKKPPFSDKPSIPAGRSLGEHLPKIQKPPLPPTTERHERSSPLPGKKPPVPKHGWGPDRRENDEDDVHQRPLPQPALLPMSSNTFPSRSTKPSPMNPLPSSHMPGAFSESNSSFPQSASLPPYFSQGPSNRPPIRAEGRNFPLPLPNKPRPPSPAEEENSLNEEWYVSYITRPEAEAALRKINQDGTFLVRDSSKKTTTNPYVLMVLYKDKVYNIQIRYQKESQVYLLGTGLRGKEDFLSVSDIIDYFRKMPLLLIDGKNRGSRYQCTLTHAAGYP | soluble
HHHHHHMASSAQDGNNPLFSPYKMGKFNLSHRVVLAPMTRCRALNNIPQAALGEYYEQRATAGGFLITEGTMISPTSAGFPHVPGIFTKEQVREWKKIVDVVHAKGAVIFCQLWHVGRASHEVYQPAGAAPISSTEKPISNRWRILMPDGTHGIYPKPRAIGTYEISQVVEDYRRSALNAIEAGFDGIEIHGAHGYLIDQFLKDGINDRTDEYGGSLANRCKFITQVVQAVVSAIGADRVGVRVSPAIDHLDAMDSNPLSLGLAVVERLNKIQLHSGSKLAYLHVTQPRYVAYGQTEAGRLGSEEEEARLMRTLRNAYQGTFICSGGYTRELGIEAVAQGDADLVSYGRLFISNPDLVMRIKLNAPLNKFNRKTFYTQDPVVGYTDYPFLQGNGSNGPLSRL | soluble
EQTQNLYIEGDNLDAMKLLKKSYAGKVDVIYIDPPYNTGKDFIFNDTFALSQEESDEKQGRYNEEGQRLFQNTEANGKFHSDWCSMMYARLMLARTLLNDNGIIFISIDDHELANLIKIGNEVFNASNFIDVFNWAKTETPENLSKKSKQIIEYIVCYQKKKNDMKFQGLKKESVSSNGLLNQPNSVGILTFPANKVVTSIPDGVIKAGMYGTDAYDVELLEDTTVRGGLFTAPVKLKAKFKWSQANLDKEIQKGTTIKIPTLKLSPSYEKLEYDPEVPPNLINYKVGVETNEQAGNHQLQFFDKKVFNFPKPVSLIQYLCEFIDTKNKDCIVMDFFSGSGTTAEAVMRMNMKPRKNKVKYILVQLPEDVTETIKKAKTPSEKEIMQNAIDFLTENHKALNICELSKERIRRAGDTIEAECNQRKSKDLPDIGFRVFRIADSNMKDVYYSAK | not soluble
MTYIAPEESAFGVGFFERLEANAKPMSLTRGPDAWDVLESIKRNVSNILNTRIGGAQSAPHLGLVDFNDATLETLDLSVRIKLAIQQCLERYEPRLTRVLVRADQDSFNPLTLRFHITATINSEALHEKVQFSLLLDQSRKYRVF | not soluble
MSLASDPFEAPIPGLHACIDPIAVAHNLEVLRQRLGVGVDGPRIWATVKADAYGHGLHNVLPGLRAADGIAVRHLHEAHQCRRVGWSGPIMVYAGLTHEREAALLTLQQLHLVITDMTQLEWLPGKPLYSCAPWIWLRYIGATRLGGLDASEYRRAYARCRELQQHGALRGVGHLNHYANAASVGDLEREHADFEACIRGLPGPVSTCNSAAACVLPTMAARTDWVRPGLALYGVSPIPGREGHHHHHH | not soluble
MIGNVKMEYASASEEYLTESEMDEYLDDLRSKIPSFIVELLKNNLKNRKLTRPQLDKIVGRVSDLYFGKKPEDKKAAELTNKINDLSQKLDALMKVATISSATKVSDDIKKELNYLDDEKIEVPEISKAVEVPEIIEEPEISIEPVEEPVVEPVKIIEKQTVEPIIEFKEEPKIEKVVSKVPLEIEEGNNMRPELTPAVETTARLQELPEDTLSTMLVFKWLEFLISRVGTGNLIDVLDYYHNLGWVSGKAISKLMKVSKNMKYFHEDIDWKANECMAPEDHVVSLLYIEKLAGRPIAVEELEGMEREINRIKKWAEELQKM | not soluble
MGSDKIHHHHHHMKSLLAIYPGSIVSEELCIREGCLCFFDESNQRYISIPKTEISEKEVLVLQSFLTPADEGNQLSMKSPEENKWFSFLFSRGELPAYIKKRTRFVHFHLFGKIERTSFTEAVRHFWPVSFVIVWIHEDRGVIVEQESEAAAEKDELESLAKVLESDFYFSVRFYAGRFYEPDECLRKHYAREQAYFLFAEKRLPQVQSVTFEMIFPFLLLETEKEKLETLLSEEAELLFGSESELRKTIKLFIENNSNVTLTAKKLHLHRNSLQYRIDKFIERSGIDIKSYKGALLAYFICLQNESSE | not soluble
MGSDKIHHHHHHMTDLKTTFAGLSLRNPIIISSSGLTNSAGKNKRLAEAGAGAIVLKSLFEEQIMLEADQLKDPAFYPEASDYLEEYIREHKLAEYLTLIKESKKECSIPIIASINCYSDSEWVDFAKQIQEAGADALEINILALQSDVQYTYGSFEQRHIDILRHIKQTVTIPVIMKLGDNLTNPVALIDQLYANGAAAVVLFNRFYQPDINIENMEQVSGEVFSTSADLATPLRWIGIASSVVNKIDYAASGGVANPEAVVKAILAGASAVEVCSAIYQNTNAFIGESTRFLSAWMERKGFKNIAQFKGKLNIKDVQGINTFERTQFLKYFGKKEA | not soluble
MGFFSSLSSLFGLGKKDVNIVVVGLDNSGKTTILNQLKTPETRSQQIVPTVGHVVTNFSTQNLSFHAFDMAGQMKYRSTWESYFHSSQGVIFVLDSSDRLRMELLKDELMMVMEHKDVVSRGIPIVILANKMDIPGAMTASDITVALGLNLYRSGTWSIHSTCALTGDGLDKAMQQLSAEITKYMESRRT | not soluble
MGSDKIHHHHHHKTTTAVQLADTFAFMRQKKVLVLDLDPQTNATLALVGEERWEQADERGQTLAHLFLDLLNGTRNFNPERAIVRGASNLNTIPPEVFDQLPESAQYGRVDVLPSSIRLIDVQDRMQDIANRTNYSLSPMAVVQKYIGPLFGRYDYVLIDCPPNLGFITQNGLEVSDHYLIPTIPDRMSTYGIPQIAGKIDELRRDRDLKIRCLGVVVTKFQSNSSQHKQGLEHLPEYLRSAFAYTNEDTPPILNTVMPQTNASAEAMLFERDVRNYPVKYGSGAVAGQAAYKYGLDLAAEVQALLGDEDEA | not soluble
MVASHSFEASILAYVLATELKRKGIEINPEHSALIALFHDAGETLLGDLPKWATSRINKRDAEVEAFDELGIGKELFLELKDLNTNEAKVAKLSDRLSTY | soluble
MGSDKIHHHHHHMVTRITINRGKRCVDEADRCHNRWHPDIEPAAEVDPGDIVVIETRDALDGQITANPGVDDVASADLNVVHPLTGPVYVRGAKPGDLLVVEVLDIKAEPFGFTVAIPGFGFLRDLFDKPYKIRWRIEGGYAFSEDLPNVRIPGDPFLGVMGVAPSKELLKEIKEREDRLLKRGGFVLPPTPEGAVPPREPVASEGLRTIPPRENGGNLDVRHFSPGSKIYFPVFVEGALFSVGDAHYAQGDGEVCGTAIEMGATATLRFGVISEGAKKYGIRFPIFKPSESSVRRFTHSKHVAVTGVGVIDSLNESENATLSAKHALLNLINLLEKAGYTREQAYLLASVAADLRLSQLVDVPNFTVTAFLPLDIFIEPPEVLKKLAE | not soluble
MGSDKIHHHHHHMKGIEVKQVTKSFDKKMILNGIGMTIEPNKIYGLLGRNGAGKSTLLSLLVNRIAPDTGEIRLDNKVIRDNDEQLSKMFLMSEVDLYPKNLKVKDVFKWTKSFYGGFDEELAQDLCEKFGLQTNIIFNKLSTGYRTIMKLIVALAVPVEYVFLDEPILGLDAGHREIFYNALVETYAENPRTFVISTHLIEEIANLIEHVLVIDHGRLIVDDETEKVLGEAYVVSGPEDKVDEYTQGLNVIGSDKLARIKASYVFGSLDNKPISDLINIDQMDLQTLFVNLTNGGNENE | not soluble
MTEDEWEKQSSFVPVNADPLSPYTEKVKTLAAHRLDFHIRENLRLGVGELTMIGGKYPDLFAVSPFSIWHNNYNEGYTNSMASFDFSWVPKKGFEVHGEFVLDDLVGTTENESKPTAYAFNVGVRRALSTGSLKGVLGVEYALATKFVYNTFLPYLKFNNRIVYLTNLPSSRTIVDYPVGFAFGPDAKLLNVSFDLFKENVSLETDFFYLVKGPNTLYTEYPTAEEGETKTIFGASLRGKIGHVSFSLLFSGSEFLAGLGIEFGF | not soluble
MNNSAEYFIKSLNMTAHPEGGYFKESFISPSKLAPNTLHINEERLLWTSIYFLLRTGEVSNFHRLKSDEMWYFHAGESLTIYMISPNGELIEKQLGLNIEKGETPQVLVPKDYIFGSAMNNEGFSLVGCMVAPGFDFKDFELFEREDLLEKYPKYKEVIEKLTRLEHHHHHH | not soluble
LQTLPPVQLAQKYFQIFSEEKDPLWQDPCEDKRHKDIWSKEKTCDRFPKLLIIGPQKTGTTALYLFLGMHPDLSSNYPSSETFEEIQFFNGHNYHKGIDWYMEFFPIPSNTTSDFYFEKSANYFDSEVAPRRAAALLPKAKVLTILINPADRAYSWYQHQRAHDDPVALKYTFHEVITAGSDASSKLRALQNRCLVPGWYATHIERWLSAYHANQILVLDGKLLRTEPAKVMDMVQKFLGVTNTIDYHKTLAFDPKKGFWCQLLEGGKTKCLGKSKGRKYPEMDLDSRAFLKDYYRDHNIELSKLLYKMGQTLPTWLREDLQNTR | soluble
